{"source": "paper PMC2936784", "about": "(Science (New York, N.Y.), 2009)", "biological_target": "PTEN, purified from HEK293 cells (UniProt P60484 1-403)", "sequence (P60484 whole entry)": "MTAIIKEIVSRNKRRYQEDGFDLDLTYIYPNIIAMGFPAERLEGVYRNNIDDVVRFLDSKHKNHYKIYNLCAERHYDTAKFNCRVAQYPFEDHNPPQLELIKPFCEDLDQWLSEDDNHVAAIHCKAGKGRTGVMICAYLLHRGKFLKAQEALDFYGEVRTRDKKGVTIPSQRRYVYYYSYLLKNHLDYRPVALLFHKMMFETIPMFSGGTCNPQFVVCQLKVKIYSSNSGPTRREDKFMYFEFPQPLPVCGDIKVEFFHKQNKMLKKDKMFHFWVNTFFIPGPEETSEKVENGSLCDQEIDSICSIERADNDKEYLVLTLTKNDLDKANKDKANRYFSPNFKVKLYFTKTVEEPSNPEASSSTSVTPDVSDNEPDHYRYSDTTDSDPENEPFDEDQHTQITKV", "experiment": "enzyme inhibition kinetics"}
{"binder": "Affinity purified full-length P-REX2a (natural protein, UniProt Q70Z35 1-1606, looked up) MSEDSRGDSRAESAKDLEKQLRLRVCVLSELQKTERDYVGTLEFLVSAFLHRMNQCAASKVDKNVTEETVKMLFSNIEDILAVHKEFLKVVEECLHPEPNAQQEVGTCFLHFKDKFRIYDEYCSNHEKAQKLLLELNKIRTIRTFLLNCMLLGGRKNTDVPLEGYLVTPIQRICKYPLILKELLKRTPRKHSDYAAVMEALQAMKAVCSNINEAKRQMEKLEVLEEWQSHIEGWEGSNITDTCTEMLMCGVLLKISSGNIQERVFFLFDNLLVYCKRKHRRLKNSKASTDGHRYLFRGRINTEVMEVENVDDGTADFHSSGHIVVNGWKIHNTAKNKWFVCMAKTPEEKHEWFEAILKERERRKGLKLGMEQDTWVMISEQGEKLYKMMCRQGNLIKDRKRKLTTFPKCFLGSEFVSWLLEIGEIHRPEEGVHLGQALLENGIIHHVTDKHQFKPEQMLYRFRYDDGTFYPRNEMQDVISKGVRLYCRLHSLFTPVIRDKDYHLRTYKSVVMANKLIDWLIAQGDCRTREEAMIFGVGLCDNGFMHHVLEKSEFKDEPLLFRFFSDEEMEGSNMKHRLMKHDLKVVENVIAKSLLIKSNEGSYGFGLEDKNKVPIIKLVEKGSNAEMAGMEVGKKIFAINGDLVFMRPFNEVDCFLKSCLNSRKPLRVLVSTKPRETVKIPDSADGLGFQIRGFGPSVVHAVGRGTVAAAAGLHPGQCIIKVNGINVSKETHASVIAHVTACRKYRRPTKQDSIQWVYNSIESAQEDLQKSHSKPPGDEAGDAFDCKVEEVIDKFNTMAIIDGKKEHVSLTVDNVHLEYGVVYEYDSTAGIKCNVVEKMIEPKGFFSLTAKILEALAKSDEHFVQNCTSLNSLNEVIPTDLQSKFSALCSERIEHLCQRISSYKKFSRVLKNRAWPTFKQAKSKISPLHSSDFCPTNCHVNVMEVSYPKTSTSLGSAFGVQLDSRKHNSHDKENKSSEQGKLSPMVYIQHTITTMAAPSGLSLGQQDGHGLRYLLKEEDLETQDIYQKLLGKLQTALKEVEMCVCQIDDLLSSITYSPKLERKTSEGIIPTDSDNEKGERNSKRVCFNVAGDEQEDSGHDTISNRDSYSDCNSNRNSIASFTSICSSQCSSYFHSDEMDSGDELPLSVRISHDKQDKIHSCLEHLFSQVDSITNLLKGQAVVRAFDQTKYLTPGRGLQEFQQEMEPKLSCPKRLRLHIKQDPWNLPSSVRTLAQNIRKFVEEVKCRLLLALLEYSDSETQLRRDMVFCQTLVATVCAFSEQLMAALNQMFDNSKENEMETWEASRRWLDQIANAGVLFHFQSLLSPNLTDEQAMLEDTLVALFDLEKVSFYFKPSEEEPLVANVPLTYQAEGSRQALKVYFYIDSYHFEQLPQRLKNGGGFKIHPVLFAQALESMEGYYYRDNVSVEEFQAQINAASLEKVKQYNQKLRAFYLDKSNSPPNSTSKAAYVDKLMRPLNALDELYRLVASFIRSKRTAACANTACSASGVGLLSVSSELCNRLGACHIIMCSSGVHRCTLSVTLEQAIILARSHGLPPRYIMQATDVMRKQGARVQNTAKNLGVRDRTPQSAPRLYKLCEPPPPAGEE", "values": [{"measurement": "Ki", "value": 19, "unit": "nM"}]}
